# Measured values as given in the Immune Epitope Database (IEDB).
# Tests used:
# HLA-B*18:01 [1] = test: IEDB peptide-MHC binding, purified MHC/competitive/radioactivity; filed as Kd, often an IC50 or EC50 that approximates it; ≥ and ≤ were set here for values at or beyond the usual limits of such assays
# HLA-B*40:01 = test: as above
# HLA-B*40:02 = test: as above
# HLA-B*44:02 = test: as above
# HLA-B*44:03 = test: as above
# HLA-B*45:01 = test: as above
# HLA-A*02:01 [2] = test: IEDB peptide-MHC binding, purified MHC/competitive/fluorescence; ≥ and ≤ were set here for values at or beyond the usual limits of such assays; conditions: source organism: Zaire ebolavirus
# HLA-A*24:02 = test: as above; conditions: source organism: Zaire ebolavirus
# HLA-B*15:01 [3] = test: as above
# HLA-B*48:01 = test: IEDB peptide-MHC binding, purified MHC/direct/fluorescence; filed as Kd, often an IC50 or EC50 that approximates it; ≥ and ≤ were set here for values at or beyond the usual limits of such assays; conditions: source organism: West Nile virus
# HLA-B*39:01 [4] = test: as above; conditions: source organism: Influenza A virus (A/kunke/1/71(H3N2))
# HLA-B*58:01 [5] = test: IEDB peptide-MHC binding, purified MHC/competitive/radioactivity; filed as Kd, often an IC50 or EC50 that approximates it; ≥ and ≤ were set here for values at or beyond the usual limits of such assays
# HLA-B*07:02 = test: IEDB peptide-MHC binding, purified MHC/direct/fluorescence; filed as Kd, often an IC50 or EC50 that approximates it; ≥ and ≤ were set here for values at or beyond the usual limits of such assays; conditions: source organism: Escherichia coli O157:H7
# HLA-B*51:01 [6] = test: as above; conditions: source organism: Escherichia coli O157:H7
# HLA-A*68:02 [7] = test: IEDB peptide-MHC binding, purified MHC/competitive/radioactivity; filed as Kd, often an IC50 or EC50 that approximates it; ≥ and ≤ were set here for values at or beyond the usual limits of such assays; conditions: source organism: Dengue virus 2 Jamaica/1409/1983
# HLA-B*35:01 = test: as above; conditions: source organism: Dengue virus 2 Jamaica/1409/1983
# HLA-B*51:01 [8] = test: as above; conditions: source organism: Dengue virus 2 Jamaica/1409/1983
# HLA-B*53:01 = test: as above; conditions: source organism: Dengue virus 2 Jamaica/1409/1983
# HLA-A*29:02 = test: IEDB peptide-MHC binding, purified MHC/competitive/fluorescence; filed as Kd, often an IC50 or EC50 that approximates it; ≥ and ≤ were set here for values at or beyond the usual limits of such assays; conditions: source organism: Giardia lamblia ATCC 50803
# HLA-A*02:03 = test: IEDB peptide-MHC binding, purified MHC/direct/fluorescence; filed as Kd, often an IC50 or EC50 that approximates it; ≥ and ≤ were set here for values at or beyond the usual limits of such assays; conditions: source organism: Zaire ebolavirus
# HLA-A*02:11 = test: as above; conditions: source organism: Zaire ebolavirus
# HLA-A*02:12 = test: as above; conditions: source organism: Zaire ebolavirus
# HLA-A*02:16 = test: as above; conditions: source organism: Zaire ebolavirus
# HLA-A*02:19 = test: as above; conditions: source organism: Zaire ebolavirus
# HLA-A*03:01 = test: as above; conditions: source organism: Zaire ebolavirus
# HLA-A*68:02 [9] = test: as above; conditions: source organism: Zaire ebolavirus
# HLA-B*58:01 [10] = test: as above; conditions: source organism: Ebola virus - Eckron (Zaire, 1976)
# HLA-A*02:01 [11] = test: IEDB peptide-MHC binding, purified MHC/competitive/fluorescence; filed as Kd, often an IC50 or EC50 that approximates it; ≥ and ≤ were set here for values at or beyond the usual limits of such assays; conditions: source organism: Zaire ebolavirus
# HLA-A*26:01 = test: as above; conditions: source organism: Zaire ebolavirus
# HLA-A*69:01 = test: as above; conditions: source organism: Zaire ebolavirus
# HLA-B*15:01 [12] = test: as above; conditions: source organism: Zaire ebolavirus
# HLA-B*15:17 = test: as above; conditions: source organism: Zaire ebolavirus
# HLA-B*18:01 [13] = test: as above; conditions: source organism: Zaire ebolavirus
# HLA-B*27:03 = test: as above; conditions: source organism: Zaire ebolavirus
# HLA-B*39:01 [14] = test: as above; conditions: source organism: Zaire ebolavirus
# HLA-B*46:01 = test: as above; conditions: source organism: Zaire ebolavirus
# HLA-B*51:01 [15] = test: as above; conditions: source organism: Zaire ebolavirus
# [16] = source organism: Mammarenavirus whitewaterense
# [17] = source organism: Mammarenavirus machupoense
# [18] = source organism: Zaire ebolavirus
# [19] = source organism: SARS coronavirus Tor2
# [20] = source organism: Mammarenavirus juninense
# [21] = source organism: Mammarenavirus lassaense
# [22] = source organism: Mammarenavirus brazilense
sequence,measurement,setting,value
AEQSRIFEEL,Kd,HLA-B*18:01 [1]; [16],≥ 20800 nM
same,Kd,HLA-B*40:01; [16],10200 nM
same,Kd,HLA-B*40:02; [16],16.8 nM
same,Kd,HLA-B*44:02; [16],57.4 nM
same,Kd,HLA-B*44:03; [16],430 nM
same,Kd,HLA-B*45:01; [16],206 nM
EEPAALLPL,Kd,HLA-B*18:01 [1]; [17],5640 nM
same,Kd,HLA-B*40:01; [17],7110 nM
same,Kd,HLA-B*40:02; [17],57.1 nM
same,Kd,HLA-B*44:02; [17],≥ 39900 nM
same,Kd,HLA-B*44:03; [17],≥ 41200 nM
same,Kd,HLA-B*45:01; [17],≥ 23400 nM
FVTLDGQQF,IC50,HLA-A*02:01 [2],≥ 121000 nM
same,IC50,HLA-A*24:02,17600 nM
same,IC50,HLA-B*15:01 [3]; [18],61100 nM
GETALALLL,Kd,HLA-B*18:01 [1]; [19],≥ 22700 nM
same,Kd,HLA-B*40:01; [19],1.22 nM
same,Kd,HLA-B*40:02; [19],7.78 nM
same,Kd,HLA-B*44:02; [19],31.4 nM
same,Kd,HLA-B*44:03; [19],13.2 nM
same,Kd,HLA-B*45:01; [19],448 nM
GRLVTVNPF,Kd,HLA-B*48:01,≥ 20000 nM
HDLPLLCTL,Kd,HLA-B*18:01 [1]; [20],1710 nM
same,Kd,HLA-B*40:01; [20],16100 nM
same,Kd,HLA-B*40:02; [20],8.52 nM
same,Kd,HLA-B*44:02; [20],9820 nM
same,Kd,HLA-B*44:03; [20],19100 nM
same,Kd,HLA-B*45:01; [20],≥ 74600 nM
HHAVPNGTL,Kd,HLA-B*39:01 [4],52.1 nM
KEAYCQEFLL,Kd,HLA-B*18:01 [1]; [21],≥ 45900 nM
same,Kd,HLA-B*40:01; [21],10200 nM
same,Kd,HLA-B*40:02; [21],33.7 nM
same,Kd,HLA-B*44:02; [21],1260 nM
same,Kd,HLA-B*44:03; [21],5010 nM
same,Kd,HLA-B*45:01; [21],6680 nM
LASAILNAHE,Kd,HLA-B*58:01 [5]; source organism: Dengue virus 4 Philippines/H241/1956,983 nM
LIVKTVLDH,IC50,HLA-B*15:01 [3]; [18],≥ 73900 nM
LPQRHHIML,Kd,HLA-B*07:02,1.5 nM
same,Kd,HLA-B*51:01 [6],≥ 20000 nM
MAAILAYTI,Kd,HLA-A*68:02 [7],4.73 nM
same,Kd,HLA-B*35:01,1730 nM
same,Kd,HLA-B*51:01 [8],10.1 nM
same,Kd,HLA-B*53:01,13.2 nM
same,Kd,HLA-B*58:01 [5]; source organism: Dengue virus 2 Jamaica/1409/1983,1.26 nM
PDVGVLFGL,Kd,HLA-B*18:01 [1]; [17],≥ 44100 nM
same,Kd,HLA-B*40:01; [17],≥ 76100 nM
same,Kd,HLA-B*40:02; [17],≥ 22800 nM
same,Kd,HLA-B*44:02; [17],≥ 77900 nM
same,Kd,HLA-B*44:03; [17],≥ 78100 nM
same,Kd,HLA-B*45:01; [17],≥ 25100 nM
PEDQGNPIVL,Kd,HLA-B*18:01 [1]; [22],≥ 39300 nM
same,Kd,HLA-B*40:01; [22],≥ 30600 nM
same,Kd,HLA-B*40:02; [22],10500 nM
same,Kd,HLA-B*44:02; [22],≥ 70200 nM
same,Kd,HLA-B*44:03; [22],≥ 70100 nM
same,Kd,HLA-B*45:01; [22],≥ 70000 nM
PPIPIWLLF,Kd,HLA-A*29:02,197 nM
REMLAHAEET,Kd,HLA-B*18:01 [1]; [19],1030 nM
same,Kd,HLA-B*40:01; [19],922 nM
same,Kd,HLA-B*40:02; [19],68 nM
same,Kd,HLA-B*44:02; [19],895 nM
same,Kd,HLA-B*44:03; [19],228 nM
same,Kd,HLA-B*45:01; [19],151 nM
RTIHHASAP,IC50,HLA-A*02:01 [2],≥ 622000 nM
same,IC50,HLA-B*15:01 [3]; [18],36400 nM
SEGVPDLLV,Kd,HLA-B*18:01 [1]; [19],≥ 77500 nM
same,Kd,HLA-B*40:01; [19],≥ 29100 nM
same,Kd,HLA-B*40:02; [19],≥ 37000 nM
same,Kd,HLA-B*44:02; [19],≥ 37100 nM
same,Kd,HLA-B*44:03; [19],≥ 20900 nM
same,Kd,HLA-B*45:01; [19],13900 nM
SYFTNMFATWSP,IC50,HLA-B*15:01 [3]; source organism: Homo sapiens,5800 nM
TEAFEKMVSL,Kd,HLA-B*18:01 [1]; [19],1550 nM
same,Kd,HLA-B*40:01; [19],3.52 nM
same,Kd,HLA-B*40:02; [19],34.7 nM
same,Kd,HLA-B*44:02; [19],1920 nM
same,Kd,HLA-B*44:03; [19],5740 nM
same,Kd,HLA-B*45:01; [19],4460 nM
TEHSWNADL,Kd,HLA-B*18:01 [1]; [19],8390 nM
same,Kd,HLA-B*40:01; [19],34 nM
same,Kd,HLA-B*40:02; [19],132 nM
same,Kd,HLA-B*44:02; [19],125 nM
same,Kd,HLA-B*44:03; [19],137 nM
same,Kd,HLA-B*45:01; [19],331 nM
VELKHFFFA,Kd,HLA-B*18:01 [1]; [19],1710 nM
same,Kd,HLA-B*40:01; [19],≥ 29800 nM
same,Kd,HLA-B*40:02; [19],103 nM
same,Kd,HLA-B*44:02; [19],15600 nM
same,Kd,HLA-B*44:03; [19],2630 nM
same,Kd,HLA-B*45:01; [19],15.8 nM
VEYYPLLFIT,Kd,HLA-B*18:01 [1]; [19],8280 nM
same,Kd,HLA-B*40:01; [19],5120 nM
same,Kd,HLA-B*40:02; [19],12.6 nM
same,Kd,HLA-B*44:02; [19],≥ 62000 nM
same,Kd,HLA-B*44:03; [19],8310 nM
same,Kd,HLA-B*45:01; [19],568 nM
WLQKIPLQW,Kd,HLA-A*02:03,≥ 20000 nM
same,Kd,HLA-A*02:11,≥ 20000 nM
same,Kd,HLA-A*02:12,≥ 20000 nM
same,Kd,HLA-A*02:16,≥ 20000 nM
same,Kd,HLA-A*02:19,≥ 20000 nM
same,Kd,HLA-A*03:01,≥ 20000 nM
same,Kd,HLA-A*68:02 [9],≥ 20000 nM
same,Kd,HLA-B*58:01 [10],693 nM
same,Kd,HLA-A*02:01 [11],≥ 20000 nM
same,Kd,HLA-A*26:01,≥ 20000 nM
same,Kd,HLA-A*69:01,≥ 20000 nM
same,Kd,HLA-B*15:01 [12],≥ 20000 nM
same,Kd,HLA-B*15:17,≥ 20000 nM
same,Kd,HLA-B*18:01 [13],≥ 20000 nM
same,Kd,HLA-B*27:03,≥ 20000 nM
same,Kd,HLA-B*39:01 [14],≥ 20000 nM
same,Kd,HLA-B*46:01,≥ 20000 nM
same,Kd,HLA-B*51:01 [15],≥ 20000 nM
WMASVEPHW,Kd,HLA-B*58:01 [5]; source organism: Dengue virus 1 Brazil/97-11/1997,13.3 nM
